The record followed here is publication PMC7098653.

Experiment [1] concerns the target LysIME-EF1 CBD (residues 168-237) with an N-terminal 6xHis-tag (E. faecalis phage). Briefly: SEC; single purified CBD proteins; Superdex 200, 20 mM Tris-HCl pH 8.0, 150 mM NaCl, 0.5 ml/min, 16°C. (In gel filtration, larger molecules generally elute earlier.)
The target in experiment [2] is full-length LysIME-EF1 (wild type), N-terminally 6xHis-tagged (E. faecalis phage). Briefly: crystal structure; Se-Met WT LysIME-EF1, space group P12(1)1, 1.75 Å, Se-SAD (PDB 6IST).
Experiment [3] addresses truncated LysIME-EF1 CBD fragment (8 kDa), product of the internal translation start at M168 (E. faecalis phage). As to the kind of experiment: crystal structure; LysIME-EF1 CBD, space group I422, 1.75 Å, one molecule in the asymmetric unit, tetramer by crystallographic symmetry (PDB 6L00).

With “LysIME-EF1 CBD (residues 168-237) with an N-terminal 6xHis-tag (domain or fragment)”, in experiment [1], the stoichiometry N (commonly a count of units in the complex or per binding partner) worked out at 4. With “truncated LysIME-EF1 CBD fragment (8 kDa), product of the internal translation start at M168 (domain or fragment)”, the values for the stoichiometry N in experiment [2] and in experiment [3] were 3 and 4, respectively.
